Experimental data taken from article doi:10.1101/686782 (bioRxiv, 2019).

B1: P. savastanoi FliP (natural protein)
chain: ADPLSIPAITLSNGADGQQEYSVSLQILLIMTALSFIPAFVMLMTSFTRIIIVFSILRQALGLQQTPSNQILTGMALFLTMFIMAPVFDRVNQDALQPYLAEKLSAQDAVAKAQVPIKDFMLAQTRTSDLELFMRLSKRTDIPTPDAAPLTILVPAFVISELKTAFQIGFMIFIPFLIIDLVVASVLMAMGMMMLSPLIISLPFKIMLFVLVDGWALIVGTLAGSFGGV
B2: P. savastanoi FliQ (natural protein)
chain: MTPEVAVDLFREALWLTTVLVAILVVPSLLCGLLVAMFQAATQINEQTLSFLPRLLVMLVTLIVIGPWLLKIFMEYMLSLYTSIPTLIG
notes: also called FliQ5

Target: the molecule itself
Test: cryo-EM structure

Row | Protein | stoichiometry N
1 | B1 | 5
2 | B2 | 5
